Results on one molecule are retold here after patent US20070071744A1 (published 2007).

For the assay, the target named is T1, human glycoprotein VI (GPVI), native, on human platelets (human, UniProt Q9HCN6 21-339).
T1 sequence (looked up): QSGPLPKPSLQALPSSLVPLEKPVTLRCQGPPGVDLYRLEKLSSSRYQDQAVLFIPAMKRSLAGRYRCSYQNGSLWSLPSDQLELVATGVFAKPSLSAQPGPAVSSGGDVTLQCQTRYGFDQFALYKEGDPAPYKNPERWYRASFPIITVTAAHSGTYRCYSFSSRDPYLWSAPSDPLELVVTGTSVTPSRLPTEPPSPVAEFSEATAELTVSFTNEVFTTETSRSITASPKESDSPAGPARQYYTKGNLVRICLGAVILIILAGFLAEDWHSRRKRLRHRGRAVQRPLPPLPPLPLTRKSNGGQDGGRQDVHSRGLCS
In words: cell-based or functional assay.

B1: hGP 5C4 Fab (Fab, V domains shown)
VH: EVKLQESGGGLVQPGRSLKLSCTASGFTFSDYFMSWVRQAPTRGLEWVASISSGGASAYWRDSVKGRFTISRDNAKSALYLQMDSLRSEDTATYFCARGELDFDYWGQGVMVAVSS
VL: ADPNSTLLSASVGDRVTLNCTASQNVYKNLAWYQQKLGEAPRLLLYSANSQTGIPSRFSGSGSGPDFTLTISSLQPEDVASYFCQQYYSGNTFGAGTKLELKR
Consider B1, for which the “IC50 of inhibition of collagen-induced (3 µg/ml) human platelet aggregation ex vivo” value came out at 0.12 µg/mL.
